Measurements reported in patent US20250340881A1, “PHARMACEUTICAL COMPOSITION FOR TREATING CANCER COMPRISING FOXM1 MUTANT OR FOXM1 SHRNA” (Industry-University Cooperation Foundation Hanyang …, priority 2022, published 2025).

Legend:
A549 lung cancer cells = experiment: Wound healing assay of A549 cells expressing FoxM1 phosphorylated point mutants; type: cell-based; conditions: distance in the control group at 72 h set to 0%
Protocol: To observe the effects of phosphorylation point mutations on the motility of cancer cells, a wound healing assay was performed in lung cancer cells A549 expressing FoxM1 wild type (WT), phosphorylated point mutants S25E, S361E, and S715E, and a simultaneous triple-point mutation EEE protein.
Specifically, cells expressing the gene of FoxM1 point mutant by the lentivirus system were seeded into 6-well plates at 1×10^5 cells/well each. 24 hours after cell seeding, scratches were made at regular intervals using a 200 μl-pipette tip. In addition, A549 cells treated with mock as a negative control (Mock) and 5 ng/ml of TGF-β as a positive control were used. […] In addition, the distance in the control group at 72 h was set to 0%, and the relative distance was represented as a bar graph (FIG. 4G).

[1] = tested on: A549 lung cancer cells expressing the FoxM1 phosphorylated point mutant protein; experiment: Migration assay of A549 cells over-expressing FoxM1 phosphorylated point mutant treated with peptides; type: cell-based; conditions: doxycycline 3 μg/ml, 48 hours, no peptide
Protocol: Moreover, to evaluate the effects and efficacy of the three peptides comprising the FoxM1 non-phosphorylation point mutation on the motility of cancer cells, the cell motility was measured by a migration assay (FIG. 8C). Specifically, 5×10^4 cells of A549 lung cancer cells expressing the FoxM1 phosphorylated point mutant protein were seeded into an 8.0 μm, 24-well insert. Culture medium containing 10% serum (FBS) was added to a 24-well plate, and then the insert was placed into the plate. 0.5 ml of RPMI 1640 (10% FBS) containing 3 μg/ml of doxycycline was dispensed into the plate, and each of the three kinds of 5 μM of FoxM1 non-phosphorylated point mutant peptides was simultaneously treated. […] After 5 minutes, the plate was washed with 1×PBS five times, and the stained intensity was measured using the Odyssey infrared imaging system. […]
Specifically, 5×10^4 cells of A549 lung cancer cells expressing the FoxM1 phosphorylated point mutant protein were seeded in an 8.0 μm, 24-well insert, and the inserts were placed in a 24-well plate after medium with 10% fetal bovine serum (FBS) was dispensed on the 24-well plate. […] After 5 minutes, the plate was washed with 1×PBS five times, and the stained intensity was measured using the Odyssey infrared imaging system. […]

B1: S25E: FoxM1 phosphorylated point mutant of the S25 residue, expressed by lentivirus in A549 cells (protein, listed as Homo sapiens)
chain: MKTSPRRPLILKRRRLPLPVQNAPEETSEEEPKRSPAQQESNQAEASKEVAESNSCKFPAGIKIINHPTMPNTQVVAIPNNANIHSIITALTAKGKESGSSGPNKFILISCGGAPTQPPGLRPQTQTSYDAKRTEVTLETLGPKPAARDVNLPRPPGALCEQKRETCDGEAAGCTINNSLSNIQWLRKMSSDGLGSRSIKQEMEEKENCHLEQRQVKVEEPSRPSASWQNSVSERPPYSYMAMIQFAINSTERKRMTLKDIYTWIEDHFPYFKHIAKPGWKNSIRHNLSLHDMFVRETSANGKVSFWTIHPSANRYLTLDQVFKQQQKRPNPELRRNMTIKTELPLGARRKMKPLLPRVSSYLVPIQFPVNQSLVLQPSVKVPLPLAASLMSSELARHSKRVRIAPKVLLAEEGIAPLSSAGPGKEEKLLFGEGFSPLLPVQTIKEEEIQPGEEMPHLARPIKVESPPLEEWPSPAPSFKEESSHSWEDSSQSPTPRPKKSYSGLRSPTRCVSEMLVIQHRERRERSRSRRKQHLLPPCVDEPELLFSEGPSTSRWAAELPFPADSSDPASQLSYSQEVGGPFKTPIKETLPISSTPSKSVLPRTPESWRLTPPAKVGGLDFSPVQTSQGASDPLPDPLGLMDLSTTPLQSAPPLESPQRLLSSEPLDLISVPFGNSSPSDIDVPKPGSPEPQVSGLAANRSLTEGLVLDTMNDSLSKILLDISFPGLDEDPLGPDNINWSQFIPELQ
For B1, the “relative healing distance (motility) at 72 h” value (A549 lung cancer cells) was 43% and the “stained intensity (migration) of over-expressed group compared to the control group” value [1] was 5 folds.
